Paper PMC3507513 (Molecular cell, 2010)

Key:
[1] = biological target: T1, HET-S(1–227) (Podospora anserina), B2ACC7; experiment: […]; conditions: remark: other sources report otherwise
T1 chain: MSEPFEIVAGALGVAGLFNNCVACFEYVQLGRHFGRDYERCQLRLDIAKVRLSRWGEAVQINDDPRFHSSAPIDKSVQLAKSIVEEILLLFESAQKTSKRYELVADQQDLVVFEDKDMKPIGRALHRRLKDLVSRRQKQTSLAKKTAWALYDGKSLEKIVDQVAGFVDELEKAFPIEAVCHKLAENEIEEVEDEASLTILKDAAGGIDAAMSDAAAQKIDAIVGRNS

[2] = biological target: T1, HET-S(1–227) (Podospora anserina), …; experiment: NMR titration; conditions: remark: other sources report otherwise
[3] = biological target: the molecule itself; experiment: NMR titration

| Binder | stoichiometry N [1] | Kd [2] [µM] | Kd [3] [µM] |
| --- | --- | --- | --- |
| HET-S(1–227), B2ACC7 1-227 (domain or fragment) MSEPFEIVAGALGVAGLFNNCVACFEYVQLGRHFGRDYERCQLRLDIAKVRLSRWGEAVQINDDPRFHSSAPIDKSVQLAKSIVEEILLLFESAQKTSKRYELVADQQDLVVFEDKDMKPIGRALHRRLKDLVSRRQKQTSLAKKTAWALYDGKSLEKIVDQVAGFVDELEKAFPIEAVCHKLAENEIEEVEDEASLTILKDAAGGIDAAMSDAAAQKIDAIVGRNS | 2 | 78 |  |
| HET-s(1–227) (domain or fragment, Podospora anserina, UniProt Q03689 1-227, looked up) MSEPFGIVAGALNVAGLFNNCVDCFEYVQLGRPFGRDYERCQLRLDIAKARLSRWGEAVKINDDPRFHSDAPTDKSVQLAKSIVEEILLLFESAQKTSKRYELVADQQDLVVFEDKDMKPIGRALHRRLNDLVSRRQKQTSLAKKTAWALYDGKSLEKIVDQVARFVDELEKAFPIEAVCHKLAEIEIEEVEDEASLTILKDAAGGIDAAMSDAAAQKIDAIVGRNS |  |  | 320 ± 37 |
